Experiments:
[1] = target: human complement protein C4b (human) (UniProt P0C0L4)
[2] = target: human complement protein C3b (human) (UniProt P01024); conditions: scale: % of complement activity in untreated serum
[3] = target: human complement protein C3b (human) (UniProt P01024); experiment: ELISA; C3b or C4b (1 µg) immobilised in microtiter wells in PBS pH 7.2; up to 1 µM His-tagged Lig protein in 2% BSA-PBS pH 7.2, 37°C, 1 h; detected with anti-His antibody; apparent Kd = concentration of LigB that gives half-maximal binding
[4] = target: human complement protein C4b (human) (UniProt P0C0L4); experiment: as above

Sequence of human complement protein C4b (human) (P0C0L4 20-675, chain 1 of 3): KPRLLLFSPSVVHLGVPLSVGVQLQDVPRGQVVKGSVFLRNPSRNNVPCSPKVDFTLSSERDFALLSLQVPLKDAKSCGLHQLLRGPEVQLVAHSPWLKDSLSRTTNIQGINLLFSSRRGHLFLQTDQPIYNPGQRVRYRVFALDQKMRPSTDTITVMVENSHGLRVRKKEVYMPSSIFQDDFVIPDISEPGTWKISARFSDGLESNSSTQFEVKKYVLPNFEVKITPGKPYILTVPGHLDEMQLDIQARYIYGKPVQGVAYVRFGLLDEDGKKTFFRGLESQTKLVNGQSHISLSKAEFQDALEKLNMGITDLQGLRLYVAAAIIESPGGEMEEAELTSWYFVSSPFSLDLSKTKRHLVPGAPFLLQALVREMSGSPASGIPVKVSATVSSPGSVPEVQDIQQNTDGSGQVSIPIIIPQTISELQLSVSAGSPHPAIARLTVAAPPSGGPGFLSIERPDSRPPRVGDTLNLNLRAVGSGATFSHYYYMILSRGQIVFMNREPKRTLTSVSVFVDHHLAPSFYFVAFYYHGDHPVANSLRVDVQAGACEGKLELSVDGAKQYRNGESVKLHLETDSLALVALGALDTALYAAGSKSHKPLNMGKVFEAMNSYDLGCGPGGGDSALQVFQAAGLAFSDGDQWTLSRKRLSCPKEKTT
Sequence of human complement protein C4b (human) (P0C0L4 757-1446, chain 2 of 3): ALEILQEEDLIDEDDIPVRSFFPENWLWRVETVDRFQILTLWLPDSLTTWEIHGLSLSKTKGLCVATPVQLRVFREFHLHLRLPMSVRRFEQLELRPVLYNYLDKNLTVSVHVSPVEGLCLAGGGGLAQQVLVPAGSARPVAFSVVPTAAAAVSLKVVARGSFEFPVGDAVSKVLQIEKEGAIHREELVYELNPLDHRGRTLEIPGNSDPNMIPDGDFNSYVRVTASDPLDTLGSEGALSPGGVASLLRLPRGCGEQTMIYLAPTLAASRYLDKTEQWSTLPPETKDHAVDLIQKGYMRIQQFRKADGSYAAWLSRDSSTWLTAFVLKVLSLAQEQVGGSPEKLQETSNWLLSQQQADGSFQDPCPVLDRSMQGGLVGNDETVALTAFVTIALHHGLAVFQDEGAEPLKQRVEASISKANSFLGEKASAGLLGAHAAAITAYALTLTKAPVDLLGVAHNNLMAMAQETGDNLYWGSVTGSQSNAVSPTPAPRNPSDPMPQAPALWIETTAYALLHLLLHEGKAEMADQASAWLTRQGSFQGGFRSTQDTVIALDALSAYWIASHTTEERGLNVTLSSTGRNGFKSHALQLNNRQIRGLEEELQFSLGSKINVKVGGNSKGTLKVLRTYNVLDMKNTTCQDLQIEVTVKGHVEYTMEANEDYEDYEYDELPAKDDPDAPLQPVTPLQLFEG
Sequence of human complement protein C4b (human) (P0C0L4 1454-1744, chain 3 of 3): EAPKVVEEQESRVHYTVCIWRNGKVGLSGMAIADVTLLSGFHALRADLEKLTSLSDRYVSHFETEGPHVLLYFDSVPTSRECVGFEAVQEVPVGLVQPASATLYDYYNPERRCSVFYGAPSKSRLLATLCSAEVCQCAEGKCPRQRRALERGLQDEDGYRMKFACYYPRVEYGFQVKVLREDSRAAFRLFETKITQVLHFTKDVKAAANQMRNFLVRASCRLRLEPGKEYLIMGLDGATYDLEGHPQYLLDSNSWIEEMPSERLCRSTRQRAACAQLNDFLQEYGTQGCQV
Sequence of human complement protein C3b (human) (P01024 23-667, chain 1 of 2): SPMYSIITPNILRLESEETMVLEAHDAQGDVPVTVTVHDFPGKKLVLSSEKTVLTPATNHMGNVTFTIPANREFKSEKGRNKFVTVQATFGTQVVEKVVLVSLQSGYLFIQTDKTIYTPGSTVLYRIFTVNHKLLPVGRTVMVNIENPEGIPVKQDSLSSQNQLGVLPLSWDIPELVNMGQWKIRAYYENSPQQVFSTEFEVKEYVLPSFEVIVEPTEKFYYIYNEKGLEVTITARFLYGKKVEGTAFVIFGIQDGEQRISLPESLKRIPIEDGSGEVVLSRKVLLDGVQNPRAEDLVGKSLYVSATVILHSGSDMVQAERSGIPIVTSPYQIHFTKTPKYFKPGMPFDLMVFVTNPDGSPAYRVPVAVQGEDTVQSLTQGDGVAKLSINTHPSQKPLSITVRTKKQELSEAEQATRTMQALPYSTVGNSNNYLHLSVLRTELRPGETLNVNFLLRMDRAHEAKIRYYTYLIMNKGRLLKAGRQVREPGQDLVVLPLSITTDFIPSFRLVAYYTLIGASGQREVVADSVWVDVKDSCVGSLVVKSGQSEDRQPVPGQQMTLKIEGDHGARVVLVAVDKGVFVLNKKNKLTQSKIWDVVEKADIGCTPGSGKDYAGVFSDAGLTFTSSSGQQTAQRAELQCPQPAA
Sequence of human complement protein C3b (human) (P01024 749-1663, chain 2 of 2): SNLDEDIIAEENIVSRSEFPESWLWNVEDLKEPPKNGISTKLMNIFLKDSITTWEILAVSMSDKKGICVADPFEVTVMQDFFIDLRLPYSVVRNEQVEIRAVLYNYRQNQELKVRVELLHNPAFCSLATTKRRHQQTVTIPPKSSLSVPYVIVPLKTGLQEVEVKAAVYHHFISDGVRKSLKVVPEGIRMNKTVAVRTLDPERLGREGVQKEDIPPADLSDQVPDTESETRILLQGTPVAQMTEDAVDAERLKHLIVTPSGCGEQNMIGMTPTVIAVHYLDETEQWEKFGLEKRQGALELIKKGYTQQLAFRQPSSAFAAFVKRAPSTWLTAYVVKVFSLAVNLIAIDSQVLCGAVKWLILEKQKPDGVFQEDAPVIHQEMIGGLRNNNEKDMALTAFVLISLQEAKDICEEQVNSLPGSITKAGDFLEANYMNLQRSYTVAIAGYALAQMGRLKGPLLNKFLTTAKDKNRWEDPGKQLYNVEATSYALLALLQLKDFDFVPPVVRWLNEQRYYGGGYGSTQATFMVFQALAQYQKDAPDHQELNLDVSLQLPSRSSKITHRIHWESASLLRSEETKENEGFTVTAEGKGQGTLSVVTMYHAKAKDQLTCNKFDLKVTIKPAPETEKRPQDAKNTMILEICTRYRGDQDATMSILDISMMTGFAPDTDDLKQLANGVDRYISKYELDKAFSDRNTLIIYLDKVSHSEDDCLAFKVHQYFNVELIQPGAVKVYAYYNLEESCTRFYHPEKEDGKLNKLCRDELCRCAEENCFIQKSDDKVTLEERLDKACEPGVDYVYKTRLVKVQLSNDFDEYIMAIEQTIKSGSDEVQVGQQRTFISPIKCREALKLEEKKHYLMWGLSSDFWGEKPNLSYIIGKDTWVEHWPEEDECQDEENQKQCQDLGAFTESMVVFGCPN

Substance	complement-mediated hemolysis of antibody-sensitized sheep erythrocytes (classical pathway) after preincubation of normal human serum with the protein, as % of untreated serum (% of untreated serum) [1]	complement-mediated hemolysis of rabbit erythrocytes (alternative pathway) after preincubation of normal human serum with the protein, as % of complement activity in untreated serum [2]	Kd [3]	Kd [4]
LigB8-12 (domain or fragment)	71.4	38.9	–	–
LigB9-11 (domain or fragment)	64	57.8	69 nM	67 nM
LigB7′-12 (from UniProt C0J1Q6 1-1889) (domain or fragment)	–	–	43 nM	69 nM
LigB9-12 (domain or fragment)	–	–	69 nM	57 nM

— PMC3402383
